Laboratory results as given in PMC3696401.

Target: IRBIT (UniProt Q80SW1)
Test: reciprocal co-IP from co-transfected cells
Settings: reference: wild-type IP3R1; sites S1589,S1755

UniProt Q80SW1, sequence (Q80SW1 whole entry, looked up): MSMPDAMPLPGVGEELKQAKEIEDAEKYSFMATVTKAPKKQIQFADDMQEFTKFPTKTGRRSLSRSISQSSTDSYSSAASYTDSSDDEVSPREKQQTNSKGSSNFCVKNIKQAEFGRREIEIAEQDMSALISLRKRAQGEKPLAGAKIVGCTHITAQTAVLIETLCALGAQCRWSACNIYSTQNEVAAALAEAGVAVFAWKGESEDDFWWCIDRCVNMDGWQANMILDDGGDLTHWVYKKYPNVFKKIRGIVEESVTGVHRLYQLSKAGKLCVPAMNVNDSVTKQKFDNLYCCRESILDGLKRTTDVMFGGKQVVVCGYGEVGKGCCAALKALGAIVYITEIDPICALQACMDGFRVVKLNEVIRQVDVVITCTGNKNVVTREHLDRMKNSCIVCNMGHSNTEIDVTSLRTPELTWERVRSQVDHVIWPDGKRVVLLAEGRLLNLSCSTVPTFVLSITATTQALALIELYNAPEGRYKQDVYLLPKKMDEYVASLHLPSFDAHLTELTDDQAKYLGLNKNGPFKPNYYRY

**Q.** For “IP3R1 (from UniProt P29994-3) S1589A/S1755A (AA)”, which “binding against the reference” value is on record?
**A.** stronger
